Assay [1] has as its target human IgG1 Fc (wild type, without Fab arms) (human). As to the kind of experiment: negative-stain electron microscopy; purified Fc, gp34-M and t-gp68 combined in various ratios, complexes purified by SEC; 2 mM Tris pH 8.0, 200 mM NaCl; uranyl acetate. Background: SEC sorts molecules by how far they enter the pores of the column.
The target is the same in assay [2]. The assay is described as follows: SPR; BIAcore X100; 200 RU human IgG1 Fc immobilised on CM5; t-gp68-strep-FLAG injected 250–3 nM; 1:1 binding kinetics. In general terms: Surface plasmon resonance follows binding to a sensor surface in real time, without labels.
Assay [3] shares this target. The description is as above. The source holds these as a separate data set.
In assay [4] the target is vFcγR on AD169-infected MRC5 cells (Figure 1C). The assay is described as follows: flow cytometry on cells.
The target of assay [5] is hu4D5 human IgG1 antibody with Fc variant G5 (human). The assay is described as follows: BLI; Octet RED96e; hu4D5 IgG1 variants on CH1-binding (FAB2G) biosensors; CD16A F158 5000–156.25 nM, V158 2000–62.5 nM; room temperature, PBS pH 7.4, 0.02% Tween 20, 0.1% BSA; steady state. A general note: In BLI a coated tip is dipped into the sample, and binding shifts an interference pattern.

The target in assay [6] is hu4D5 human IgG1 antibody with Fc variant G2 (human). The description is as above.
Assay [7] concerns the target hu4D5 human IgG1 antibody with wild-type Fc (human). The assay is described as above.
For assay [8], the target named is t-gp68 (truncated gp68 ectodomain, soluble) (HCMV AD169). As to the kind of experiment: SPR; BIAcore X100; t-gp68-twin strep-FLAG captured (40 RU) on anti-strep Fab; hu4D5 IgG1 Fc variants injected; 2:1 binding kinetics (first constants only) and steady state analysis.
For assay [9], the target named is biotinylated human FcRn (human) (UniProt P55899). The assay is described as follows: BLI; Octet RED96e; biotinylated FcRn on streptavidin biosensors; hu4D5 Fc variants 1000–31.2 nM; PBS pH 6.0, 0.02% Tween 20, room temperature; steady state.
Assay [10] deals with HCMV glycoprotein B (gB) on the surface of infected fibroblasts (Human cytomegalovirus AD169, UniProt P06473, strain). The assay is described as follows: flow cytometry on cells; antibody on AD169-, Δ3- or mock-infected MRC5 fibroblasts, on ice; extracellular antibody detected with goat anti-human Fcγ AF647 (anti-mouse Fcγ for SM5–1-mFc). The note with it: one partner purified.

Experimental findings from publication PMC12831531 (Cell reports, 2025) are described below.

Where two headings read alike, the source gives them in different places.

Chain of biotinylated human FcRn (human) (P55899 24-297, chain 1 of 2): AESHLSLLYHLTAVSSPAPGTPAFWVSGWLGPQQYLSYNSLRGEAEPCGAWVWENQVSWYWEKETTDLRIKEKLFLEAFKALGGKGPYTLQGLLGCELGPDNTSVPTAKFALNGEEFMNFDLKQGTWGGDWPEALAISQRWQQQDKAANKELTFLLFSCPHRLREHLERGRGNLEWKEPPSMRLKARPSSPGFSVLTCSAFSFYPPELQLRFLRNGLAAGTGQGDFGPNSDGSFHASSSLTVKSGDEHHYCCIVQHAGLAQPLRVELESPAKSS
Chain of biotinylated human FcRn (human) (P61769 21-119, chain 2 of 2, further chain): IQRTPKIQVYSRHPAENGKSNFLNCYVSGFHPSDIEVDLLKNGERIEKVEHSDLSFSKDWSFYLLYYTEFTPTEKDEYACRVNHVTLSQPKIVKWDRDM

Consider “t-gp68 (truncated gp68 ectodomain, soluble) (domain or fragment)”, for which, in assay [1], the stoichiometry N (in general, the number of molecules, sites or subunits per partner or assembly) amounted to 2. In assay [2], the Kd – broadly, the concentration at which binding is half-saturated – worked out at 0.11 µM; the koff (in general, the first-order rate constant of dissociation) is 0.005 s⁻¹; the kon (as a rule, the second-order rate constant of association) came to 40000 M⁻¹ s⁻¹. The molecule also returned a koff in assay [3] of 0.004 s⁻¹.

isotype control 2B1 human IgG1 antibody gave a percent of cells positive for extracellular antibody in assay [4] of 30 % cells.

In the case of “human CD16A F158 (from UniProt P08637 17-208) (receptor)”, the Kd in assay [5] was 0.99 µM; in [6], 0.36 µM; in assay [7], 1.16 µM.

In assay [8], “hu4D5 human IgG1 antibody with wild-type Fc” gave a Kd of 0.08 µM; a ka1 (first step of a 2:1 fit) of 65000 M⁻¹ s⁻¹; a kd1 (first step of a 2:1 fit) of 0.004 s⁻¹; a kinetic KD from ka1 and kd1 of a 2:1 fit of 0.069 µM. Besides, the Kd in assay [9] stood at 0.05 µM.

B1: SM5–1 human IgG1 antibody with wild-type Fc (antibody, V domains shown)
VH: QVQLVQSGAEVRKPGASVKVSCKASGYSLKDHYMVWVRQAPGQGLEWMGWINPQSGGTGYGQKFQGRVTMTRDTSTNTAYMILSSLRSDDTAVYFCARDGAKTVSNSGLSLLYYHNRLDAWGQGTMVTVSS
VL: QSVLTQPPSVSAAPGQMVTISCSGSSSNIGKNYVSWYQQLPGAAPKLLIFDNNKRPSGTPDRFSGSKSGTSATLVITGLQTGDEADYYCGTPDRSLSVIFGGGTKVTVL
notes: also called SM5–1 WT; human SM5–1; source: ExpiCHO, purified (Protein A)
Regarding B1, the “percent of cells positive for extracellular antibody” value (“percent of cells positive” below) in [10] was approximately 70%.

B2: SM5–1 human IgG1 antibody with Fc variant G2 (antibody, V domains shown)
VH: QVQLVQSGAEVRKPGASVKVSCKASGYSLKDHYMVWVRQAPGQGLEWMGWINPQSGGTGYGQKFQGRVTMTRDTSTNTAYMILSSLRSDDTAVYFCARDGAKTVSNSGLSLLYYHNRLDAWGQGTMVTVSS
VL: QSVLTQPPSVSAAPGQMVTISCSGSSSNIGKNYVSWYQQLPGAAPKLLIFDNNKRPSGTPDRFSGSKSGTSATLVITGLQTGDEADYYCGTPDRSLSVIFGGGTKVTVL
notes: IgG1; also called SM5–1 with G2; source: ExpiCHO, purified (Protein A)
Consider B2, for which, in assay [10], the “percent of cells positive” value is approximately 70%.

B3: SM5–1 human IgG1 antibody with Fc variant G5 (antibody, V domains shown)
VH: QVQLVQSGAEVRKPGASVKVSCKASGYSLKDHYMVWVRQAPGQGLEWMGWINPQSGGTGYGQKFQGRVTMTRDTSTNTAYMILSSLRSDDTAVYFCARDGAKTVSNSGLSLLYYHNRLDAWGQGTMVTVSS
VL: QSVLTQPPSVSAAPGQMVTISCSGSSSNIGKNYVSWYQQLPGAAPKLLIFDNNKRPSGTPDRFSGSKSGTSATLVITGLQTGDEADYYCGTPDRSLSVIFGGGTKVTVL
notes: IgG1; also called SM5–1 with G5; source: ExpiCHO, purified (Protein A)
As for B3, the “percent of cells positive” value in [10] is approximately 70%.
